Four molecules from patent US8491891B2, “Human beta-glucuronidase mutants with elevated enzymatic activity under physiological conditions and method for identifying such” (Academia Sinica, priority 2008, dated 2013) can be followed below.

Data set [1] in a line: Enzymatic activity of purified position-545 single mutants at pH 7.0. The data set is classed as biochemical. The settings on record: purified enzyme. The text has this:
DNA plasmids were extracted from 12 individual cell clones and subjected to DNA sequencing to examine mutations in the genes encoding human β-glucuronidase variants. All human β-glucuronidase variants being examined had mutations at position 545 (50% T→A and 50% T→S). To determine the effect of amino acid substitutions at position 545 on enzyme activity, the single amino acid mutants T545A (E1-A), T545G (E1-G), T545S (E1-S) and T545Y (E1-Y) were generated and purified from the culture medium of stably transfected fibroblasts. […] Thus, the single amino acid substitution at position 545 affected human β-glucuronidase activity at neutral pH.

Data set [2] in a line: Kinetic values (Km, kcat) of soluble recombinant human β-glucuronidase and variants. The settings on record: for kcat/Km, fold higher than wild-type human β-glucuronidase: pH 7.0. The data set is classed as biochemical. The protocol: Recombinant His-tagged wild-type human β-glucuronidase and its variants (soluble) were produced in and purified from stable 3T3 fibroblast lines, following the method described above also the method described in Wu et al., Biotechnol Appl Biochem 40:167-172 (2004).
The pH-dependent enzyme activities of the above-mentioned recombinant human beta-glucuronidase and variants were measured in triplicate with 0.1 mM ELF97 β-D-glucuronide at 37° C. for 30 minutes at a defined pH ranging from 3-10 in a beta-glucuronidase reaction buffer (50 mM Bis-Tris, 50 mM triethanol amine, 100 mM acetic acid, 0.1% BSA). The reaction was quenched by adding an equal volume of a stop buffer (2 M Tris-HCl, 0.8 M sodium bicarbonate, pH 8). The fluorescence of ELF97 was measured in a Gemini EM microplate spectrofluorometer (Molecular Device, Sunnyvale, Calif.) at excitation/emission wavelengths of 355/555 nm. Kinetic values for human beta-glucuronidase substrate hydrolysis were determined by diluting ELF97 β-D-glucuronide (2 mM) in a pH 4.5 or pH 7.0 beta-glucuronidase reaction buffer 1:1 with defined concentrations of human beta-glucuronidase in 200 μl. Fluorescence was immediately measured under thermal control at 37° C. for 8-10 min. The measurement was repeated using the same amount of enzyme at different substrate concentrations in an optimal range. The acquired readings were converted to product concentration based on preestablished standard curves. Double reciprocal plots were used to determine Km and kcat. Kinetic assays were performed at least 3 times and mean values were calculated. The stability of recombinant human beta-glucuronidase variants was carried out by measuring their enzymatic activity at time 0 and again after incubating 5 μg purified enzymes in PBS (containing 0.5 mg/ml BSA) at 37° C. for 14 days. The enzymatic activities of the human beta-glucuronidase variants were measured in triplicate with 0.5 mM 4-methylumbelliferyl β-D-glucuronide at 37° C. for 15 minutes at pH 7.0 in β-glucuronidase reaction buffer. The reaction was terminated by adding an equal volume of a stop buffer (1 M glycine, 0.5 M sodium bicarbonate, pH 11) and the fluorescence was measured at excitation/emission wavelengths of 355/460 nm in a microplate spectrofluorometer.

Data set [3] can be described thus: Relative activity of membrane-tethered human β-glucuronidase variants on 3T3 cells by flow cytometry (FL4/FL1). The data set is classed as cell-based. Particulars: membrane-tethered enzyme, pH 7.0, substrate ELF97 β-D-glucuronide. How it is done: The 3T3 cell libraries mentioned above were screened by FACS analysis for cells that express human β-glucuronidase variants with elevated enzymatic activity. 10^7 3T3 cells expressing membrane-bound human β-glucuronidase variants were washed and suspended in 0.4 ml BSA/HBSS (5.4 mM KCl, 0.3 mM Na2HPO4, 0.4 mM KH2PO4, 4.2 mM NaHCO3, 1.3 mM CaCl2, 0.5 mM MgCl2, 0.6 mM MgSO4, 137 mM NaCl, 5.6 mM D-glucose, pH 7.4) containing 0.5% bovine serum albumin (BSA) and 20 μg/ml 7G8-FITC for 30 min at 4° C. Cells were then washed and incubated with 25, 50 or 100 μM ELF97 β-D-glucuronide at defined pH values in 50 mM Bis-Tris, 25 mM glucose, 85.6 mM NaCl, 5.4 mM KCl, 0.6 mM MgSO4, 1.3 mM CaCl2) at 37° C. for 10 min. The cells were washed with ice-cold 0.5% BSA/HBSS and suspended in 0.5% BSA/HBSS containing 5 μg/ml propidium iodide (Sigma). Cells were then sorted on a FACSVantage DiVa (Becton, Dickinson and Company, Franklin Lakes, N.J.) equipped with an Enterprise IIC argon laser for dual excitation at 488 and 351-364 nm. Dead cells (propidium iodide positive, high FL3 fluorescence) were gated out before 7G8-FITC immunofluorescence was detected at excitation/emission wavelengths of 488/515 nm (FL1) and ELF97 was detected at excitation/emission wavelengths of 351/530 nm (FL4). […] The sorted cells were cultured for 4-10 days for sequential rounds of cell sorting or RNA extraction. Flow cytometer data was analyzed using Flowjo (Tree star, Ashland, Oreg.).
Independent 3T3 clones (5×10^7) in library EP2 mentioned above were immunofluorescence stained with 7G8-FITC and reacted with ELF97 β-D-glucuronide at pH 7.0. Sixteen individual cell clones were isolated after three rounds of sorting and the human β-glucuronidase genes were sequenced. […] Table 1 below lists amino acid substitutions in five exemplary variants and their relative enzymatic activities.

B1: E1-A: human β-glucuronidase single amino acid mutant T545A (protein, UniProt P08236 23-651, looked up, variant T545A)
Beta-glucuronidase: LQGGMLYPQESPSRECKELDGLWSFRADFSDNRRRGFEEQWYRRPLWESGPTVDMPVPSSFNDISQDWRLRHFVGWVWYEREVILPERWTQDLRTRVVLRIGSAHSYAIVWVNGVDTLEHEGGYLPFEADISNLVQVGPLPSRLRITIAINNTLTPTTLPPGTIQYLTDTSKYPKGYFVQNTYFDFFNYAGLQRSVLLYTTPTTYIDDITVTTSVEQDSGLVNYQISVKGSNLFKLEVRLLDAENKVVANGTGTQGQLKVPGVSLWWPYLMHERPAYLYSLEVQLTAQTSLGPVSDFYTLPVGIRTVAVTKSQFLINGKPFYFHGVNKHEDADIRGKGFDWPLLVKDFNLLRWLGANAFRTSHYPYAEEVMQMCDRYGIVVIDECPGVGLALPQFFNNVSLHHHMQVMEEVVRRDKNHPAVVMWSVANEPASHLESAGYYLKMVIAHTKSLDPSRPVTFVSNSNYAADKGAPYVDVICLNSYYSWYHDYGHLELIQLQLATQFENWYKKYQKPIIQSEYGAEAIAGFHQDPPLMFTEEYQKSLLEQYHLGLDQKRRKYVVGELIWNFADFMTEQSPTRVLGNKKGIFTRQRQPKSAAFLLRERYWKIANETRYPHSVAKSQCLENSLFT
For B1, the “Enzymatic activity relative to wild-type human β-glucuronidase” value in data set [1] is on record as “about 2.5 fold”.

B2: E1-Y: human β-glucuronidase single amino acid mutant T545Y (protein, UniProt P08236 23-651, looked up, variant T545Y)
Beta-glucuronidase: LQGGMLYPQESPSRECKELDGLWSFRADFSDNRRRGFEEQWYRRPLWESGPTVDMPVPSSFNDISQDWRLRHFVGWVWYEREVILPERWTQDLRTRVVLRIGSAHSYAIVWVNGVDTLEHEGGYLPFEADISNLVQVGPLPSRLRITIAINNTLTPTTLPPGTIQYLTDTSKYPKGYFVQNTYFDFFNYAGLQRSVLLYTTPTTYIDDITVTTSVEQDSGLVNYQISVKGSNLFKLEVRLLDAENKVVANGTGTQGQLKVPGVSLWWPYLMHERPAYLYSLEVQLTAQTSLGPVSDFYTLPVGIRTVAVTKSQFLINGKPFYFHGVNKHEDADIRGKGFDWPLLVKDFNLLRWLGANAFRTSHYPYAEEVMQMCDRYGIVVIDECPGVGLALPQFFNNVSLHHHMQVMEEVVRRDKNHPAVVMWSVANEPASHLESAGYYLKMVIAHTKSLDPSRPVTFVSNSNYAADKGAPYVDVICLNSYYSWYHDYGHLELIQLQLATQFENWYKKYQKPIIQSEYGAEYIAGFHQDPPLMFTEEYQKSLLEQYHLGLDQKRRKYVVGELIWNFADFMTEQSPTRVLGNKKGIFTRQRQPKSAAFLLRERYWKIANETRYPHSVAKSQCLENSLFT
On to B2, for which, in data set [1], the “Enzymatic activity relative to wild-type human β-glucuronidase” value is “almost inactive”.

B3: E1-S: human beta-glucuronidase variant T545S, SEQ ID NO: 6 (protein)
chain: GAQPALQGGMLYPQESPSRECKELDGLWSFRADFSDNRRRGFEEQWYRRPLWESGPTVDMPVPSSFNDISQDWRLRHFVGWVWYEREVILPERWTQDLRTRVVLRIGSAHSYAIVWVNGVDTLEHEGGYLPFEADISNLVQVGPLPSRLRITIAINNTLTPTTLPPGTIQYLTDTSKYPKGYFVQNTYFDFFNYAGLQRSVLLYTTPTTYIDDITVTTSVEQDSGLVNYQISVKGSNLFKLEVRLLDAENKVVANGTGTQGQLKVPGVSLWWPYLMHERPAYLYSLEVQLTAQTSLGPVSDFYTLPVGIRTVAVTKSQFLINGKPFYFHGVNKHEDADIRGKGFDWPLLVKDFNLLRWLGANAFRTSHYPYAEEVMQMCDRYGIVVIDECPGVGLALPQFFNNVSLHHHMQVMEEVVRRDKNHPAVVMWSVANEPASHLESAGYYLKMVIAHTKSLDPSRPVTFVSNSNYAADKGAPYVDVICLNSYYSWYHDYGHLELIQLQLATQFENWYKKYQKPIIQSEYGAESIAGFHQDPPLMFTEEYQKSLLEQYHLGLDQKRRKYVVGELIWNFADFMTEQSPTRVLGNKKGIFTRQRQPKSAAFLLRERYWKIANETRYPHSVAKSQCLENSPFTSVD
modifications: Laboratory generated variant, E1-S, based upon the human beta-glucuronidase
As a reminder, the Km is the concentration of substrate that gives half-maximal velocity. The kcat is the maximal rate divided by the concentration of active sites. With B3, the “Enzymatic activity relative to wild-type human β-glucuronidase” value in data set [1] is recorded as “about 1.5 fold”. The Km turned out to be 52 ± 4 µM in data set [2] (pH 4.5, 37° C.) and 390 ± 40 µM in data set [2] (pH 7.0, 37° C.). The kcat in data set [2] (pH 4.5, 37° C.) amounted to 117 ± 14 s⁻¹; in data set [2] (pH 7.0, 37° C.), 31 ± 6 s⁻¹. Also, the “kcat/Km, fold higher than wild-type human β-glucuronidase” value in data set [2] was determined as 4 fold. In addition, the “Relative activity (FL4/FL1 normalized to wild-type human β-glucuronidase)” value in data set [3] is recorded as 21.

B4: E1-G: human beta-glucuronidase variant T545G, SEQ ID NO: 7 (protein)
chain: GAQPALQGGMLYPQESPSRECKELDGLWSFRADFSDNRRRGFEEQWYRRPLWESGPTVDMPVPSSFNDISQDWRLRHFVGWVWYEREVILPERWTQDLRTRVVLRIGSAHSYAIVWVNGVDTLEHEGGYLPFEADISNLVQVGPLPSRLRITIAINNTLTPTTLPPGTIQYLTDTSKYPKGYFVQNTYFDFFNYAGLQRSVLLYTTPTTYIDDITVTTSVEQDSGLVNYQISVKGSNLFKLEVRLLDAENKVVANGTGTQGQLKVPGVSLWWPYLMHERPAYLYSLEVQLTAQTSLGPVSDFYTLPVGIRTVAVTKSQFLINGKPFYFHGVNKHEDADIRGKGFDWPLLVKDFNLLRWLGANAFRTSHYPYAEEVMQMCDRYGIVVIDECPGVGLALPQFFNNVSLHHHMQVMEEVVRRDKNHPAVVMWSVANEPASHLESAGYYLKMVIAHTKSLDPSRPVTFVSNSNYAADKGAPYVDVICLNSYYSWYHDYGHLELIQLQLATQFENWYKKYQKPIIQSEYGAEGIAGFHQDPPLMFTEEYQKSLLEQYHLGLDQKRRKYVVGELIWNFADFMTEQSPTRVLGNKKGIFTRQRQPKSAAFLLRERYWKIANETRYPHSVAKSQCLENSPFTSVD
modifications: Laboratory generated variant, E1-G, based upon the human beta-glucuronidase
Turning to B4, the “Enzymatic activity relative to wild-type human β-glucuronidase” value in data set [1] is “about 2.5 fold”. For the same molecule, in data set [2] (pH 4.5, 37° C.), the Km amounted to 22 ± 2 µM and the kcat was 106 ± 4 s⁻¹. The “kcat/Km, fold higher than wild-type human β-glucuronidase” value in data set [2] was 10 fold. In data set [2] (pH 7.0, 37° C.), the Km came out at 110 ± 10 µM and the kcat was found to be 32 ± 4 s⁻¹.
